These results are taken from publication doi:10.1101/483925 (bioRxiv, 2018).

The labels stand for the following.
B2: 14-3-3n (At3g02520; GRF7) (natural protein)
chain: MSSSREENVYLAKLAEQAERYEEMVEFMEKVAKTVDTDELTVEERNLLSVAYKNVIGARRASWRIISSIEQKEESRGNDDHVSIIKDYRGKIETELSKICDGILNLLDSHLVPTASLAESKVFYLKMKGDYHRYLAEFKTGAERKEAAESTLVAYKSAQDIALADLAPTHPIRLGLALNFSVFYYEILNSPDRACSLAKQAFDEAISELDTLGEESYKDSTLIMQLLRDNLTLWNSDINDEAGGDEIKEASKHEPEEGKPAETGQ

Assay [1] deals with B2. Kind of assay: native gel or EMSA. On the technique in general: A gel shift assay detects complexes by their altered migration in electrophoresis.
The target of assay [2] is T1, FD, full-length, phosphomimic variant T282E (Arabidopsis thaliana, UniProt Q84JK2 1-285, T282E).
T1 sequence: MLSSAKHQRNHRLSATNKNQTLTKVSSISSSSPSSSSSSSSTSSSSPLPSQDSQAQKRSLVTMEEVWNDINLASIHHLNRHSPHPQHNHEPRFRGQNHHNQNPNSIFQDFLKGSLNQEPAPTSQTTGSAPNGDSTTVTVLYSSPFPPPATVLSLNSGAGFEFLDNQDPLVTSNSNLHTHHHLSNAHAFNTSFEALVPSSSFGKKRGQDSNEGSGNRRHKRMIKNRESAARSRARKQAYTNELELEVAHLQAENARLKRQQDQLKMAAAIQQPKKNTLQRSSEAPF
Kind of assay: native gel or EMSA.

B1: FD-C_T282E, phosphomimic variant of the C-terminal domain of FD (amino acids 203-285) (domain or fragment)
chain: KKRGQDSNEGSGNRRHKRMIKNRESAARSRARKQAYTNELELEVAHLQAENARLKRQQDQLKMAAAIQQPKKNTLQRSSEAPF
With B1, in assay [1], the binding result is listed as “binds”. As for B2, the binding result in assay [2] was “binds”.

B3: TERMINAL FLOWER 1 (TFL1) (natural protein)
chain: not shown
With B3, the binding result in assay [1] is “binds”.

B4: FLOWERING LOCUS T (FT) (natural protein)
chain: not shown
On to B4, for which the binding result in assay [1] is reported as “binds”.
